Literature values as cited in PMC5659385.

Target: concanavalin A (Canavalia ensiformis) (UniProt P02866)
Sequence of UniProt P02866 (P02866 30-148, chain 1 of 2): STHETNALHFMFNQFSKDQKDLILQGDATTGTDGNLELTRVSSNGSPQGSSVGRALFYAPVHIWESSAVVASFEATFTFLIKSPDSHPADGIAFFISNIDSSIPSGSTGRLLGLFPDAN
Sequence of UniProt P02866 (P02866 164-281, chain 2 of 2): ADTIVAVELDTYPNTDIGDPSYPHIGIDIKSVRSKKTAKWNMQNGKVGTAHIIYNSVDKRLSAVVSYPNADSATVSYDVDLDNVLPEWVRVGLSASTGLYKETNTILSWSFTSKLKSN

**Q.** For glucose oxidase (from UniProt P13006), which Kd is on record?
**A.** The Kd was 1.64 nM.
